The record followed here is article PMC10648297.

By stoichiometry N is commonly meant the number of molecules, sites or subunits per partner or assembly.

This test concerns the target 2-cysteine (Cys) peroxiredoxin A, recombinant mature wild type, tag-free (Arabidopsis). The test can be described thus: LC/MS of the intact protein (deconvoluted masses); oxidised 2CPA with 0 to 19.2 mM GSH and NEM, 50 mM Tris pH 7.5, 25 °C; C4 column, acetonitrile gradient with 0.1% HCOOH; shows disulfide-linked dimers.

For the substance “2-cysteine (Cys) peroxiredoxin A, recombinant mature wild type, tag-free (enzyme)”, the stoichiometry N came out at 2.
